From patent US20260209363A1 (Chugai, published 2026)

T1: human soluble IL-6R (human, UniProt P08887 20-357, limits assumed)
T1 construct: Soluble form; also called sIL6R; Human IL-6R
T1 sequence (looked up): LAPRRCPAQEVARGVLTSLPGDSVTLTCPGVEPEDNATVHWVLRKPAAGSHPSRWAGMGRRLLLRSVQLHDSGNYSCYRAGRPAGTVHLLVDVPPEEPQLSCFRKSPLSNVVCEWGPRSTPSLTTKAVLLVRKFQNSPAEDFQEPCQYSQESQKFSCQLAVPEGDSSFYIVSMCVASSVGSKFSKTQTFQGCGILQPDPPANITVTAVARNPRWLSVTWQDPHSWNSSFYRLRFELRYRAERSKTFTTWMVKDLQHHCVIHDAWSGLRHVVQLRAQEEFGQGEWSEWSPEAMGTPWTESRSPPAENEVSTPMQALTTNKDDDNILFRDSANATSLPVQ


Tests used:
[1] = target: T1, human soluble IL-6R; test: SPR (Biacore T200), antibody captured on Protein G, human IL-6R as analyte, 37 degrees C, no albumin
Description: Binding activities of the produced albumin switch molecules against human IL-6R were evaluated using Biacore T200 (Cytiva). As the running buffer, 50 mM Na Phosphate (pH 7.4), 150 mM NaCl, 0.05% Tween20 was used, and the evaluation was performed at 37 degrees C. First, Protein G (CALBIOCHEM) was used as a ligand-capturing molecule. Protein G (CALBIOCHEM) was solid-phased on a Series S Sensor Chip CM4 (Cytiva) using an Amine Coupling Kit (Cytiva). Antibody solution prepared using the running buffer was allowed to interact with this CM4 sensor chip to capture approximately 200 RU of the antibody. Human IL-6R used in the present measurement was prepared by an approach described in WO2018097307 (Example 3-2). Human IL-6R was diluted to 0, 100, and 400 nM with the running buffer, and allowed to bind to the captured antibody. The chip was regenerated using 3 M MgCl₂, and measurements were performed by repeatedly capturing the antibodies. Dissociation constant (KD) of each antibody for human IL-6R was calculated using Biacore T200 Evaluation Software 2.0. Specifically, the association rate constant ka (L/mol/s) and the dissociation rate constant kd (1/s) were calculated by global fitting of the sensorgrams obtained by measurement with the 1:1 Langmuir binding model, and the dissociation constant KD (mol/L) was calculated from these values.

[2] = target: T1, human soluble IL-6R; test: in vivo KD in mouse plasma (albumin present), from total antibody, free and bound sIL6R 5 min after sIL6R; antibody 1 mg/kg IV
Description: Next, free sIL6R in plasma was measured. The concentration of free sIL6R in plasma was measured on a fully automated ELISA system (Gyrolab xP workstation). First, sIL6R prepared at 23.4, 46.9, 93.8, 188, 375, 750, and 1500 ng/mL using a Protein-Free (PBS) Blocking Buffer (Thermo Scientific) was used as solutions for preparing the calibration curve. Mouse plasma samples were used in the measurements without diluting them. A solution of biotin-labeled H54 diluted to 10 micro g/mL using a Protein-Free (PBS) Blocking Buffer was used as a solution of the sIL6R-capturing molecule. Alexa Fluor (registered trademark) 647-labeled anti-human IL-6R antibody (R&D Systems) diluted to 1 micro g/mL using a Protein-Free (PBS) Blocking Buffer was used as a solution of the human IL-6R-detection molecule. PBS (pH 7.4) containing 0.05% TWEEN was used as a washing solution. The calibration curve solutions, mouse plasma samples, sIL6R-capturing molecule solution, sIL6R-detection molecule solution, and the washing solution were placed onto a PCR plate, and then the PCR plate was sealed with a plate sealer. After the PCR plate and the Bioaffy 200 disc were placed in the Gyrolab xP workstation, measurements were taken. Using the data processed by the Gyros Evaluater 3.6.2.30 software and the calibration curve concentrations, the concentration of free sIL6R in plasma was calculated by logistic regression using the XLfit 5.5.0.5 software.
Additionally, bound sIL6R in plasma was measured. The concentration of bound sIL6R in plasma was measured on an electrospray ionization mass spectrometer connected to a high-performance liquid chromatography (LC/ESI-MS/MS). First, H54//IC17 and sIL6R were mixed, and solutions for preparing the calibration curve of bound sIL6R were prepared at theoretical plasma concentrations of 0.0468, 0.467, 4.60, and 20.1 nmol/mL. The solutions for preparing the calibration curve and 1 or 2 micro L of a plasma sample were added to 75 or 150 micro g of magnetic beads (Magnosphere MS300/Carboxyl, JSR) to which anti-delta GK antibodies were solid-phased, and this was shaken at 25 degrees C. for one hour.

[3] = target: T2, mouse albumin (mouse, UniProt P07724 25-608); test: SPR (Biacore T200), antibody captured by anti-human Fc antibody, mouse albumin as analyte, 25 degrees C
T2 construct: also called recombinant mouse Albumin; mouse serum albumin
Description: Binding activities of the produced antibodies against mouse albumin were evaluated using Biacore T200 (Cytiva).
As the running buffer, 50 mM Na Phosphate (pH 7.4), 150 mM NaCl, 0.05% Tween20 was used, and the evaluation was performed at 25 degrees C. First, anti-human Fc antibody (Cytiva) was used as a ligand-capturing molecule. Anti-human Fc antibody (Cytiva) was solid-phased on a Series S Sensor Chip CM4 (Cytiva) using an Amine Coupling Kit (Cytiva). Antibody solution prepared using the running buffer was allowed to interact with this CM4 sensor chip to capture approximately 120 RU of the antibody. Mouse albumin (Bioscience) was diluted to 0 and 300 nM with the running buffer and allowed to bind to the captured antibody. The chip was regenerated using 3 M MgCl₂, and measurements were performed by repeatedly capturing the antibodies. Dissociation constant (KD) of each antibody for mouse albumin was calculated using Biacore T200 Evaluation Software 2.0. Specifically, the association rate constant ka (L/mol/s) and the dissociation rate constant kd (1/s) were calculated by global fitting of the sensorgrams obtained by measurement with the 1:1 Langmuir binding model, and the dissociation constant KD (mol/L) was calculated from these values.

Kd [1] | koff [1] | kon [1] | Kd [2] | Kd [3] | koff [3] | kon [3] | Binder
3.41 nM | 0.00141 s⁻¹ | 412000 M⁻¹ s⁻¹ | 1.3 nM | – | – | – | H54//IC17 (bispecific antibody, human IgG1, kappa, Heavy chain constant regions lack the C-terminal glycine and lysine; also called anti-human IL-6R/KLH bispecific antibody) heavy 1: QVQLQESGPGLVKPSETLSLTCAVSGYSISDDQAWSWVRQPPGEGLEWIGYISYSGITNYNPSLKGRVTISRDTSKNQFSLKLSSVTAADTAAYYCARSLARTTAMDYWGEGTLVTVSSASTKGPSVFPLAPSSKSTSGGTAALGCLVEDYFPEPVTVSWNSGALTSGVHTFPAVLQSSGLYSLSSVVTVPSSSLGTQTYICNVNHKPSNTKVDERVEPKSCDKTHTCPPCPAPELRRGPSVFLFPPKPKDTLMISRTPEVTCVVVDVSHEDPEVKFNWYVDGVEVHNAKTKPREEQYNSTYRVVSVLTVLHQDWLNGKEYKCKVSNKALPAPIEKTISKAKGQPREPQVCTLPPSREEMTKNQVSLSCAVKGFYPSDIAVEWESNGQPENNYKTTPPVLDSDGSFFLVSKLTVDKSRWQQGNVFSCSVMHEALHNHYTQKSLSLSP light 1: DIQMTQSPSSLSASVGDSVTITCQASQDISSYLNWYQQKPGKAPELLIYYGSELHSGVPSRFSGSGSGTDFTFTISSLEAEDAATYYCQQGNSLPYTFGQGTKVEIERTVAAPSVFIFPPSDRKLKSGTASVVCLLNNFYPREAKVQWKVDNALQSGNSQESVTEQDSKDSTYSLSSTLTLSKADYEKHKVYACEVTHQGLSSPVTKSFNRGEC heavy 2: not shown light 2: QVQLQQSGPQLVRPGASVKISCKASGYSFTSYWMHWVNQRPGQGLEWIGMIDPSYSETRLNQKFKDKATLTVDKSSSTAYMQLSSPTSEDSAVYYCALYGNYFDYWGQGTTLTVSSASVAAPSVFIFPPSDEQLKSGTASVVCLLNNFYPREAKVQWKVDNALQSGNSQESVTEQDSKDSTYSLSSTLTLSKADYEKHKVYACEVTHQGLSSPVTKSFNRGEC
5.21 nM | 0.00133 s⁻¹ | 255000 M⁻¹ s⁻¹ | 3.6 nM | 14.3 nM | 0.00103 s⁻¹ | 71800 M⁻¹ s⁻¹ | ABD094(H)-H54//IC17 (bispecific antibody, human IgG1, kappa) heavy 1: LAEAKEAANAELDSYGVSDFYKRLIDKAKTVEGVEALKDAILAALPQVQLQESGPGLVKPSETLSLTCAVSGYSISDDQAWSWVRQPPGEGLEWIGYISYSGITNYNPSLKGRVTISRDTSKNQFSLKLSSVTAADTAAYYCARSLARTTAMDYWGEGTLVTVSSASTKGPSVFPLAPSSKSTSGGTAALGCLVEDYFPEPVTVSWNSGALTSGVHTFPAVLQSSGLYSLSSVVTVPSSSLGTQTYICNVNHKPSNTKVDERVEPKSCDKTHTCPPCPAPELRRGPSVFLFPPKPKDTLMISRTPEVTCVVVDVSHEDPEVKFNWYVDGVEVHNAKTKPREEQYNSTYRVVSVLTVLHQDWLNGKEYKCKVSNKALPAPIEKTISKAKGQPREPQVCTLPPSREEMTKNQVSLSCAVKGFYPSDIAVEWESNGQPENNYKTTPPVLDSDGSFFLVSKLTVDKSRWQQGNVFSCSVMHEALHNHYTQKSLSLSP light 1: DIQMTQSPSSLSASVGDSVTITCQASQDISSYLNWYQQKPGKAPELLIYYGSELHSGVPSRFSGSGSGTDFTFTISSLEAEDAATYYCQQGNSLPYTFGQGTKVEIERTVAAPSVFIFPPSDRKLKSGTASVVCLLNNFYPREAKVQWKVDNALQSGNSQESVTEQDSKDSTYSLSSTLTLSKADYEKHKVYACEVTHQGLSSPVTKSFNRGEC heavy 2: not shown light 2: QVQLQQSGPQLVRPGASVKISCKASGYSFTSYWMHWVNQRPGQGLEWIGMIDPSYSETRLNQKFKDKATLTVDKSSSTAYMQLSSPTSEDSAVYYCALYGNYFDYWGQGTTLTVSSASVAAPSVFIFPPSDEQLKSGTASVVCLLNNFYPREAKVQWKVDNALQSGNSQESVTEQDSKDSTYSLSSTLTLSKADYEKHKVYACEVTHQGLSSPVTKSFNRGEC
